Experiment in all cases: AUC; sedimentation velocity, interference optics; 40 uM protein in 25 mM TES, 100 mM NaCl, 100 uM EDTA, pH 7.4; apo samples and samples with 250 uM Cu2+ and Ca2+; no reducing agent; c(s) distribution by SedFit; self-association (monomer, dimer, higher oligomers)
Assay [1] concerns the target human S100A5 C43S/C79S, Cysteine-free variant (human) (UniProt P33763).
In assay [2] the target is human S100A5, wildtype (human) (UniProt P33763).
For assay [3] the target is unchanged. The source holds these as a separate data set.

Where two headings read alike, the source gives them in different places. A value given as a limit tells only on which side of the number the result lay.

What is called stoichiometry N is the number of molecules, sites or subunits per partner or assembly. As to “human S100A5 C43S/C79S, Cysteine-free variant (from UniProt P33763 1-92) (natural protein)”, the stoichiometry N in assay [1] came out at 2.

“human S100A5, wildtype (from UniProt P33763 1-92) (natural protein)”: the stoichiometry N is > 12 in assay [2] and 2 in assay [3].

(Values after paper PMC5700546.)
